Test results: article PMC5363870, “A functional variant in NEPH3 gene confers high risk of renal failure in primary hematuric glomerulopathies. Evidence for predisposition to microalbuminuria in the general population” (PLoS ONE, 2017)

B1: Neph3 (filtrin) 353M variant (natural protein, human, UniProt Q6UWL6 21-708, looked up)
chain: GPSPHFLQQPEDLVVLLGEEARLPCALGAYWGLVQWTKSGLALGGQRDLPGWSRYWISGNAANGQHDLHIRPVELEDEASYECQATQAGLRSRPAQLHVLVPPEAPQVLGGPSVSLVAGVPANLTCRSRGDARPTPELLWFRDGVLLDGATFHQTLLKEGTPGSVESTLTLTPFSHDDGATFVCRARSQALPTGRDTAITLSLQYPPEVTLSASPHTVQEGEKVIFLCQATAQPPVTGYRWAKGGSPVLGARGPRLEVVADASFLTEPVSCEVSNAVGSANRSTALDVLFGPILQAKPEPVSVDVGEDASFSCAWRGNPLPRVTWTRRGGAQMLGSGATLRLPSVGPEDAGDYVCRAEAGLSGLRGGAAEARLTVNAPPVVTALHSAPAFLRGPARLQCLVFASPAPDAVVWSWDEGFLEAGSQGRFLVETFPAPESRGGLGPGLISVLHISGTQESDFSRSFNCSARNRLGEGGAQASLGRRDLLPTVRIVAGVAAATTTLLMVITGVALCCWRHSKASASFSEQKNLMRIPGSSDGSSSRGPEEEETGSREDRGPIVHTDHSDLVLEEEGTLETKDPTNGYYKVRGVSVSLSLGEAPGGGLFLPPPSPLGPPGTPTFYDFNPHLGMVPPCRLYRARAGYLTTPHPRAFTSYIKPTSFGPPDLAPGTPPFPYAAFPTPSHPRLQTHV
notes: Neph3 (filtrin), human NEPH3 cDNA with the natural variant V353M (GTG to ATG by site-directed mutagenesis); Each copy carries ONE tag: FLAG on the bait copy, HA on the prey copy of the homodimerisation co-IP; Two FLAG constructs are described (Origene pCMV6 with FLAG-tag; modified pcDNA6 with CD5 signal peptide fused to the FLAG-tag); also called NEPH3-V353M; NEPH3-p.V353M; source: HEK 293T, …
B2: Neph3 (filtrin) 353V (natural protein, human, UniProt Q6UWL6 21-708, looked up)
chain: GPSPHFLQQPEDLVVLLGEEARLPCALGAYWGLVQWTKSGLALGGQRDLPGWSRYWISGNAANGQHDLHIRPVELEDEASYECQATQAGLRSRPAQLHVLVPPEAPQVLGGPSVSLVAGVPANLTCRSRGDARPTPELLWFRDGVLLDGATFHQTLLKEGTPGSVESTLTLTPFSHDDGATFVCRARSQALPTGRDTAITLSLQYPPEVTLSASPHTVQEGEKVIFLCQATAQPPVTGYRWAKGGSPVLGARGPRLEVVADASFLTEPVSCEVSNAVGSANRSTALDVLFGPILQAKPEPVSVDVGEDASFSCAWRGNPLPRVTWTRRGGAQVLGSGATLRLPSVGPEDAGDYVCRAEAGLSGLRGGAAEARLTVNAPPVVTALHSAPAFLRGPARLQCLVFASPAPDAVVWSWDEGFLEAGSQGRFLVETFPAPESRGGLGPGLISVLHISGTQESDFSRSFNCSARNRLGEGGAQASLGRRDLLPTVRIVAGVAAATTTLLMVITGVALCCWRHSKASASFSEQKNLMRIPGSSDGSSSRGPEEEETGSREDRGPIVHTDHSDLVLEEEGTLETKDPTNGYYKVRGVSVSLSLGEAPGGGLFLPPPSPLGPPGTPTFYDFNPHLGMVPPCRLYRARAGYLTTPHPRAFTSYIKPTSFGPPDLAPGTPPFPYAAFPTPSHPRLQTHV
notes: Neph3 (filtrin), human NEPH3 cDNA, wild-type allele with valine at position 353; Each copy carries ONE tag: FLAG on the bait copy, HA on the prey copy of the homodimerisation co-IP; Two FLAG constructs are described (Origene pCMV6 with FLAG-tag; modified pcDNA6 coding for the CD5 signal peptide fused to the FLAG-tag); In the pcDNA6 constructs a CD5 signal peptide precedes the tag; also called …

Assays:
Assay in all cases: co-IP; HEK 293T cells co-transfected, lysed in IP-buffer (1% Triton X-100, 20 mM Tris pH 7.5, 25 mM NaCl); FLAG-Neph3 precipitated with anti-FLAG, blot with anti-HA (HA-Neph3) or anti-V5 (sV5-nephrin); densitometry (ImageJ) normalised to input, wild type set at 1.0, n = 3
[1] = target: the molecule itself
Neph3 (filtrin) 353V = target: B2; conditions: partners not purified
[2] = target: B1; conditions: partners not purified

Binder: B1
- mean normalized densitometry value (co-IP) [1]: 23.8 relative to wild type (1.0)
- mean normalized densitometry value (co-IP) (Neph3 (filtrin) 353V): 4.33 relative to wild type (1.0)

Binder: B2
- mean normalized densitometry value (co-IP) [1]: 1 relative to wild type (1.0)

B3: Nephrin (Nphs1) (natural protein, human, UniProt O60500 23-1241, looked up)
chain: QLAIPASVPRGFWALPENLTVVEGASVELRCGVSTPGSAVQWAKDGLLLGPDPRIPGFPRYRLEGDPARGEFHLHIEACDLSDDAEYECQVGRSEMGPELVSPRVILSILVPPKLLLLTPEAGTMVTWVAGQEYVVNCVSGDAKPAPDITILLSGQTISDISANVNEGSQQKLFTVEATARVTPRSSDNRQLLVCEASSPALEAPIKASFTVNVLFPPGPPVIEWPGLDEGHVRAGQSLELPCVARGGNPLATLQWLKNGQPVSTAWGTEHTQAVARSVLVMTVRPEDHGAQLSCEAHNSVSAGTQEHGITLQVTFPPSAIIILGSASQTENKNVTLSCVSKSSRPRVLLRWWLGWRQLLPMEETVMDGLHGGHISMSNLTFLARREDNGLTLTCEAFSEAFTKETFKKSLILNVKYPAQKLWIEGPPEGQKLRAGTRVRLVCLAIGGNPEPSLMWYKDSRTVTESRLPQESRRVHLGSVEKSGSTFSRELVLVTGPSDNQAKFTCKAGQLSASTQLAVQFPPTNVTILANASALRPGDALNLTCVSVSSNPPVNLSWDKEGERLEGVAAPPRRAPFKGSAAARSVLLQVSSRDHGQRVTCRAHSAELRETVSSFYRLNVLYRPEFLGEQVLVVTAVEQGEALLPVSVSANPAPEAFNWTFRGYRLSPAGGPRHRILSSGALHLWNVTRADDGLYQLHCQNSEGTAEARLRLDVHYAPTIRALQDPTEVNVGGSVDIVCTVDANPILPGMFNWERLGEDEEDQSLDDMEKISRGPTGRLRIHHAKLAQAGAYQCIVDNGVAPPARRLLRLVVRFAPQVEHPTPLTKVAAAGDSTSSATLHCRARGVPNIVFTWTKNGVPLDLQDPRYTEHTYHQGGVHSSLLTIANVSAAQDYALFTCTATNALGSDQTNIQLVSISRPDPPSGLKVVSLTPHSVGLEWKPGFDGGLPQRFCIRYEALGTPGFHYVDVVPPQATTFTLTGLQPSTRYRVWLLASNALGDSGLADKGTQLPITTPGLHQPSGEPEDQLPTEPPSGPSGLPLLPVLFALGGLLLLSNASCVGGVLWQRRLRRLAEGISEKTEAGSEEDRVRNEYEESQWTGERDTQSSTVSTTEAEPYYRSLRDFSPQLPPTQEEVSYSRGFTGEDEDMAFPGHLYDEVERTYPPSGAWGPLYDEVQMGPWDLHWPEDTYQDPRGIYDQVAGDLDTLEPDSLPFELRGHLV
notes: Nephrin, human NPHS1 cDNA cloned into a modified pcDNA6 vector behind the CD5 signal peptide and the V5 tag (sV5-tag); A CD5 signal peptide precedes the V5 tag in the construct; also called sV5-Nphs1; sV5-Nephrin; source: HEK 293T, transfected (calcium phosphate), in lysate; not shown: V5, N-terminal, kept
- mean densitometry value (co-IP) [2]: 1.18 relative to wild type (1.0)
- mean normalized densitometry value (co-IP) (Neph3 (filtrin) 353V): 1 relative to wild type (1.0)
